Columns and labels:
[1] = target: human trophoblast cell-surface antigen (Trop-2) (human) (UniProt P09758); experiment: flow cytometry, surface, NCI-N87 cells
[2] = target: human trophoblast cell-surface antigen (Trop-2) (human) (UniProt P09758); experiment: FACS on PC-3 cells; background 5.5
[3] = target: human trophoblast cell-surface antigen (Trop-2) (human) (UniProt P09758); experiment: FACS on COLO 205 cells; background 4.5
[4] = target: human trophoblast cell-surface antigen (Trop-2) (human) (UniProt P09758); experiment: FACS on PC-3 cells
[5] = target: human trophoblast cell-surface antigen (Trop-2) (human) (UniProt P09758); experiment: cell-based or functional assay
[6] = target: human trophoblast cell-surface antigen (Trop-2) (human) (UniProt P09758); experiment: FACS on Calu-3 cells; background 4.7
[7] = target: human trophoblast cell-surface antigen (Trop-2) (human) (UniProt P09758); experiment: FACS on Calu-3 cells
[8] = target: human trophoblast cell-surface antigen (Trop-2) (human) (UniProt P09758); experiment: FACS on Capan-1 cells; background 5.0
[9] = target: human trophoblast cell-surface antigen (Trop-2) (human) (UniProt P09758); experiment: FACS on SK-MES-1 cells
[10] = target: human trophoblast cell-surface antigen (Trop-2) (human) (UniProt P09758); experiment: FACS on BxPC-3 cells; background 3.1
[11] = target: human trophoblast cell-surface antigen (Trop-2) (human) (UniProt P09758); experiment: FACS on Capan-1 cells
[12] = target: human trophoblast cell-surface antigen (Trop-2) (human) (UniProt P09758); experiment: FACS on BxPC-3 cells
[13] = target: human trophoblast cell-surface antigen (Trop-2) (human) (UniProt P09758); experiment: FACS on SK-MES-1 cells; background 3.5
[14] = target: human trophoblast cell-surface antigen (Trop-2) (human) (UniProt P09758); experiment: flow cytometry, surface, Capan-1 cells
[15] = target: human trophoblast cell-surface antigen (Trop-2) (human) (UniProt P09758); experiment: FACS on COLO 205 cells
[16] = target: CD74 (invariant chain, Ii) (human) (UniProt P04233); experiment: flow cytometry, surface only, Raji cells
[17] = target: CD74 (invariant chain, Ii) (human) (UniProt P04233); experiment: flow cytometry, permeabilized Hs746T cells
[18] = target: CD74 (invariant chain, Ii) (human) (UniProt P04233); experiment: flow cytometry, surface only, A-375 cells
[19] = target: CD74 (invariant chain, Ii) (human) (UniProt P04233); experiment: flow cytometry, permeabilized Hep-G2 cells
[20] = target: CD74 (invariant chain, Ii) (human) (UniProt P04233); experiment: flow cytometry, surface only, HuH-7 cells
[21] = target: CD74 (invariant chain, Ii) (human) (UniProt P04233); experiment: flow cytometry, surface only, Hep-G2 cells
[22] = target: CD74 (invariant chain, Ii) (human) (UniProt P04233); experiment: flow cytometry, permeabilized NCI-N87 cells
[23] = target: CD74 (invariant chain, Ii) (human) (UniProt P04233); experiment: flow cytometry, permeabilized HuH-7 cells
[24] = target: CD74 (invariant chain, Ii) (human) (UniProt P04233); experiment: flow cytometry, surface only, NCI-N87 cells
[25] = target: CD74 (invariant chain, Ii) (human) (UniProt P04233); experiment: flow cytometry, surface only, Capan-1 cells
[26] = target: CD74 (invariant chain, Ii) (human) (UniProt P04233); experiment: flow cytometry, permeabilized Raji cells
[27] = target: CD74 (invariant chain, Ii) (human) (UniProt P04233); experiment: flow cytometry, permeabilized Capan-1 cells
[28] = target: CD74 (invariant chain, Ii) (human) (UniProt P04233); experiment: flow cytometry, permeabilized A-375 cells
[29] = target: CD74 (invariant chain, Ii) (human) (UniProt P04233); experiment: flow cytometry, surface only, Hs746T cells

Sequence of human trophoblast cell-surface antigen (Trop-2) (human) (P09758 27-323): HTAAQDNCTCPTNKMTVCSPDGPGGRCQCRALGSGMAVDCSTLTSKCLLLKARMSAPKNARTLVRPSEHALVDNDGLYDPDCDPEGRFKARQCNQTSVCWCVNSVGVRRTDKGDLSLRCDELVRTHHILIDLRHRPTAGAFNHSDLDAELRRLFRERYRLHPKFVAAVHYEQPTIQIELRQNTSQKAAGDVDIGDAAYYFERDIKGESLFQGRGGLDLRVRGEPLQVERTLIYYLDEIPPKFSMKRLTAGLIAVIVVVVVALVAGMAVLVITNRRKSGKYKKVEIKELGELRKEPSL
Sequence of CD74 (invariant chain, Ii) (human) (P04233 whole entry, change not shown): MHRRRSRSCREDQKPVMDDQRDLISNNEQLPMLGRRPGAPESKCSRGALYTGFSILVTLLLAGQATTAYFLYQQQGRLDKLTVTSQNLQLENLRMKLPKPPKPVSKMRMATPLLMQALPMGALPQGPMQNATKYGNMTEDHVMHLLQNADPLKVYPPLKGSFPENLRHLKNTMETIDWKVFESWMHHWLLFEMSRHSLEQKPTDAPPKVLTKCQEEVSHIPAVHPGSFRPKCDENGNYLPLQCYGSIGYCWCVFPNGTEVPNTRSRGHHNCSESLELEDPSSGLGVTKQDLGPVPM

**Q.** How did the MFI (surface) [1] turn out when “humanized RS7 IgG (hRS7), anti-Trop-2 (antibody)” was run?
**A.** The MFI (surface) was 795.

**Q.** And the median fluorescence [2]?
**A.** Its median fluorescence is 46.2.

**Q.** And the median fluorescence [3]?
**A.** Its median fluorescence is 142.

**Q.** What about the percent positive [4] of the same substance?
**A.** Its percent positive is 73.6%.

**Q.** What about the ADCC, specific lysis of BxPC-3 target cells by PBMCs (effector to target 100:1), antibody at 33.3 nM [5] of the same substance?
**A.** Its ADCC, specific lysis of BxPC-3 target cells by PBMCs (effector to target 100:1), antibody at 33.3 nM is 8.5%.

**Q.** And the median fluorescence [6]?
**A.** The median fluorescence was 282.

**Q.** What about the percent positive [7] of the same substance?
**A.** Its percent positive is 99.6%.

**Q.** What about the median fluorescence [8] of the same substance?
**A.** Its median fluorescence is 100.

**Q.** And the percent positive [9]?
**A.** The percent positive was 91.2%.

**Q.** What about the median fluorescence [10] of the same substance?
**A.** Its median fluorescence is 26.4.

**Q.** What about the percent positive [11] of the same substance?
**A.** Its percent positive is 94.2%.

**Q.** What about the percent positive [12] of the same substance?
**A.** Its percent positive is 98.3%.

**Q.** What about the median fluorescence [13] of the same substance?
**A.** Its median fluorescence is 44.

**Q.** And the MFI (surface) [14]?
**A.** Its MFI (surface) is 237.

**Q.** What about the percent positive [15] of the same substance?
**A.** The percent positive was 99.5%.

**Q.** How did the MFI ratio hLL1:bkgd (surface) [16] turn out when “milatuzumab (hLL1), humanized anti-CD74 IgG1 (antibody)” was run?
**A.** The MFI ratio hLL1:bkgd (surface) was 19.6.

**Q.** What about the MFI ratio hLL1:bkgd (surface and cytoplasmic) [17] of the same substance?
**A.** The MFI ratio hLL1:bkgd (surface and cytoplasmic) was 28.8.

**Q.** And the MFI ratio hLL1:bkgd (surface) [18]?
**A.** The MFI ratio hLL1:bkgd (surface) was 5.3.

**Q.** And the MFI ratio hLL1:bkgd (surface and cytoplasmic) [19]?
**A.** Its MFI ratio hLL1:bkgd (surface and cytoplasmic) is 31.2.

**Q.** What about the MFI ratio hLL1:bkgd (surface) [20] of the same substance?
**A.** The MFI ratio hLL1:bkgd (surface) was 1.6.

**Q.** What about the MFI ratio hLL1:bkgd (surface) [21] of the same substance?
**A.** Its MFI ratio hLL1:bkgd (surface) is 1.5.

**Q.** And the MFI ratio hLL1:bkgd (surface and cytoplasmic) [22]?
**A.** The MFI ratio hLL1:bkgd (surface and cytoplasmic) was 36.7.

**Q.** What about the MFI ratio hLL1:bkgd (surface and cytoplasmic) [23] of the same substance?
**A.** The MFI ratio hLL1:bkgd (surface and cytoplasmic) was 28.5.

**Q.** What about the MFI ratio hLL1:bkgd (surface) [24] of the same substance?
**A.** Its MFI ratio hLL1:bkgd (surface) is 1.3.

**Q.** And the MFI ratio hLL1:bkgd (surface) [25]?
**A.** Its MFI ratio hLL1:bkgd (surface) is 1.8.

**Q.** What about the MFI ratio hLL1:bkgd (surface and cytoplasmic) [26] of the same substance?
**A.** The MFI ratio hLL1:bkgd (surface and cytoplasmic) was 28.6.

**Q.** And the MFI ratio hLL1:bkgd (surface and cytoplasmic) [27]?
**A.** Its MFI ratio hLL1:bkgd (surface and cytoplasmic) is 49.6.

**Q.** And the MFI ratio hLL1:bkgd (surface and cytoplasmic) [28]?
**A.** Its MFI ratio hLL1:bkgd (surface and cytoplasmic) is 30.8.

**Q.** What about the MFI ratio hLL1:bkgd (surface) [29] of the same substance?
**A.** The MFI ratio hLL1:bkgd (surface) was 2.1.
